Data: paper PMC9167300, “The LCK-14-3-3ζ-TRPM8 axis regulates TRPM8 function/assembly and promotes pancreatic cancer malignancy” (Cell Death & Disease, 2022)

Target: T1, His-LCK fusion (human, UniProt P06239 1-509)
T1 construct: human LCK cDNA subcloned into pET28a(+); also called His-fused LCK; source: E. coli BL21, purified (Ni-NTA agarose)
Test: pull-down; protein-protein interaction assay in vitro: 150 μg His-LCK eluted from Ni-NTA incubated with GST or GST-M8C bound to GST-agarose beads, 1 h at room temperature; Western blot
Details: both partners purified

T1 sequence (P06239 whole entry, the tested form may be a part): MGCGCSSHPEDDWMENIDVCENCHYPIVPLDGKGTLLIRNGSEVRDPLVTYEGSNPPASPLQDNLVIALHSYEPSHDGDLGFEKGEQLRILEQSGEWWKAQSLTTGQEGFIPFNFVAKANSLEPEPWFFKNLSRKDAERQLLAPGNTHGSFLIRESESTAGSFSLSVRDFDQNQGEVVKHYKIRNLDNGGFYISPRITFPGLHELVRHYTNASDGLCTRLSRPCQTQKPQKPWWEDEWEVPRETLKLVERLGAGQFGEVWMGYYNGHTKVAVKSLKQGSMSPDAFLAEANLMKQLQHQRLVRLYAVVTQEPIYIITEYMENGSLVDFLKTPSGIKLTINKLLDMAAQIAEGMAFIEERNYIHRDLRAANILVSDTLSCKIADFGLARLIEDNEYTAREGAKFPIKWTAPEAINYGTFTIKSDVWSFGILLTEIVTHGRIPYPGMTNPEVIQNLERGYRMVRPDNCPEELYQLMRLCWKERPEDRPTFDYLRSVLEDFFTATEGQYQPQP

binding result: binds
B1: GST-tagged C-terminus of TRPM8 (GST-M8C) (domain or fragment, rat, UniProt Q8R455 980-1104, looked up)
chain: GYTVGIVQENNDQVWKFQRYFLVQEYCNRLNIPFPFVVFAYFYMVVKKCFKCCCKEKNTESSACCFRNEDNETLAWEGVMKENYLVKINTKANDNAEEMRHRFRQLDTKLNDLKGLLKEIANKIK
notes: C-terminus of rat TRPM8 (M8C), amino acids 980-1104, in pGEX-4T-1; source: E. coli BL21, purified (glutathione beads)
